Molecular target: T1, His6-BrxR-R17A (Escherichia fergusonii (plasmid pEFER), UniProt B7L3Y3 14-308, R30A)
T1 sequence: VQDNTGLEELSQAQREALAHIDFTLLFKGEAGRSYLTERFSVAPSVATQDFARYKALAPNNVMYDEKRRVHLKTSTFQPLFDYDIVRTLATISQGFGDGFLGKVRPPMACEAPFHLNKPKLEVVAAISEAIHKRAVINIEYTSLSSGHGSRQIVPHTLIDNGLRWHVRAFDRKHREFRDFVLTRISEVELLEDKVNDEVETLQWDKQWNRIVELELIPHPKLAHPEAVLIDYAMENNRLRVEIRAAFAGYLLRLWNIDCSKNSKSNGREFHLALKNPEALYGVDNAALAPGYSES
Experiment: EMSA; only non-specific binding at high protein; EMSA: 10 mM Tris-HCl pH 7.9, 150 mM KCl, 0.5 mM EDTA, 0.2 mM DTT, 0.1% Triton X-100, 13% glycerol (1x of 5x buffer), 1 ug poly(dI-dC) per 10 ul, 2500 fmol probe, 25 C 30 min; 7% native PAGE in 0.5x TBE
Details: protein: recombinant; tags: N-terminal His6; chain copies: 2; label: 5' 6-FAM on reverse strand (primer TRB1068); blunt

B1: WT IR1-IR2 probe (R7, R-BOX1) (dsDNA)
DNA 1: GACGACTTGTTGATACTATGAAACCTACTGAAAAACAGTAGGTTGCTTGATGGCATTCAATCGATGGCTTAAGCTTTTGTCAGTGCGCA
DNA 2: TGCGCACTGACAAAAGCTTAAGCCATCGATTGAATGCCATCAAGCAACCTACTGTTTTTCAGTAGGTTTCATAGTATCAACAAGTCGTC
**Q.** Does B1 bind?
**A.** Result: no binding
